Results taken from US20220380455A1.

How the values were obtained:
[1] = target: cynomolgus (cyno) MS4A6A (cynomolgus); assay: flow cytometry, hybridoma supernatant, HEK293 transfected with cyno MS4A6A over parental HEK293; Screen 1
[2] = target: cynomolgus (cyno) MS4A6A (cynomolgus); assay: flow cytometry, hybridoma supernatant, HEK293 transfected with cyno MS4A6A over parental HEK293; Screen 2

cynomolgus (cyno) MS4A6A (cynomolgus), sequence (Q9H2W1 other isoform, or with tags, fused parts or gaps): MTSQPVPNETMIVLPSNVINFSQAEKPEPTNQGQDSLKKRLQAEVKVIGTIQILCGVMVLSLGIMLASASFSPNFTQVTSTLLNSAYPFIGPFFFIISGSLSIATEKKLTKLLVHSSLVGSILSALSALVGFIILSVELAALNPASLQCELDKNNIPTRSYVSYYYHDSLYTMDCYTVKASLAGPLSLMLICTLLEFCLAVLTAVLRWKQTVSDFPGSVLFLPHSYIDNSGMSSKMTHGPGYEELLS

ratio of APC MFI on MS4A6A+/HEK parental cells [1]: 2.7 | ratio of APC MFI on MS4A6A+/HEK parental cells [2]: 0.2
B1: 6A-20 (antibody, V domains shown)
VH: EVQLQQSGPELVKPGASVKMSCKASGYTFTDYFMKWVKQSHGKSLEWIGDINPKNGDTFYNQKFKGKATLTVDKSSSTAYMQLNSLTSEDSAVYYCARPGYFDVWGAGTTVTVSS
VL: DIVMTQAAPSVPVTPGESVSISCRSSKSLLHSDGNTYLYWFLQRPGQSPQLLIYRMSNLAPGVPDRFSGSGSGTAFTLRISRVEAEDVGVYYCMQHLEFPFIFGAGTKLELK
